Our source for the Km, kcat and kcat/Km values is article PMC3010111.

Common to all, as to test: purified protein
Substrate in data set [1]: N[C@@H](CCO)C(=O)O
The note with it: 25°C, 37 nM ThrB.

Substrate in data set [2]: N[C@H](C(=O)O)[C@H](O)CO
Substrate in data set [3]: O=C(O)C(=O)COP(=O)(O)O
The note with it: 50 mM Tris–HCl pH 7.4, 37°C, MalE–YeaB 5.7 μM.

Substrate in data set [4]: O=C(O)[C@H](O)[C@H](O)COP(=O)(O)O
Conditions: 2 mM NAD+, 100 mM Tris–HCl pH 7.5, 25°C, 2 μM PdxA.

Substrate in data set [5]: C[C@@H](O)[C@H](N)C(=O)O
Conditions: 0.1 M Tris–HCl pH 8.0, 25°C, 1.25 μM LtaE.

Substrate in data set [6]: C[C@H](O)[C@H](N)C(=O)O
The note with it: 0.1 M Tris–HCl pH 8.0, 25°C, 62.5 nM LtaE.

Setting [7] is: 0.1 M Tris–HCl pH 8.0, 25°C, 1 μM LtaE.

B1: ThrB (homoserine kinase) (Escherichia coli K-12) (protein)
chain: MVKVYAPASSANMSVGFDVLGAAVTPVDGALLGDVVTVEAAETFSLNNLGRFADKLPSEPRENIVYQCWERFCQELGKQIPVAMTLEKNMPIGSGLGSSACSVVAALMAMNEHCGKPLNDTRLLALMGELEGRISGSIHYDNVAPCFLGGMQLMIEENDIISQQVPGFDEWLWVLAYPGIKVSTAEARAILPAQYRRQDCIAHGRHLAGFIHACYSRQPELAAKLMKDVIAEPYRERLLPGFRQARQAVAEIGAVASGISGSGPTLFALCDKPETAQRVADWLGKNYLQNQEGFVHICRLDTAGARVLEN
As usually defined, the Km is the concentration of substrate that gives half-maximal velocity. By kcat is commonly meant the number of substrate molecules converted per active site and unit of time at saturation. One may read the kcat/Km as the second-order rate constant that governs catalysis at low substrate concentration. As for B1, in data set [1], the Km was determined as 120 ± 20 µM, the kcat came out at 46 ± 4 s⁻¹ and the kcat/Km came to 380000 ± 70000 M⁻¹ s⁻¹. In data set [2] (25°C, 0.18 μM ThrB), the Km came out at 2000 ± 100 µM, the kcat amounted to 9.7 ± 0.8 s⁻¹ and the kcat/Km was 4800 ± 600 M⁻¹ s⁻¹.

B2: MalE–YeaB (YeaB, also known as NudL) (Escherichia coli K-12) (protein)
chain: MEYRSLTLDDFLSRFQLLRPQINRETLNHRQAAVLIPIVRRPQPGLLLTQRSIHLRKHAGQVAFPGGAVDDTDASAIAAALREAEEEVAIPPSAVEVIGVLPPVDSVTGYQVTPVVGIIPPDLPYRASEDEVSAVFEMPLAQALHLGRYHPLDIYRRGDSHRVWLSWYEQYFVWGMTAGIIRELALQIGVKP
As to B2, in data set [3], the kcat came to 5.7e-05 ± 7e-06 s⁻¹ and the kcat/Km was greater than 0.028 M⁻¹ s⁻¹.

B3: PdxA (4-hydroxy-L-threonine dehydrogenase) (Escherichia coli K-12) (protein)
chain: MVKTQRVVITPGEPAGIGPDLVVQLAQREWPVELVVCADATLLTNRAAMLGLPLTLRPYSPNSPAQPQTAGTLTLLPVALRAPVTAGQLAVENGHYVVETLARACDGCLNGEFAALITGPVHKGVINDAGIPFTGHTEFFEERSQAKKVVMMLATEELRVALATTHLPLRDIADAITPALLHEVIAILHHDLRTKFGIAEPRILVCGLNPHAGEGGHMGTEEIDTIIPVLNELRAQGMKLNGPLPADTLFQPKYLDNADAVLAMYHDQGLPVLKYQGFGRGVNITLGLPFIRTSVDHGTALELAGRGKADVGSFITALNLAIKMIVNTQ
Consider B3, for which, in data set [4], the Km amounted to 150 ± 13 µM and the kcat came to 0.020 ± 0.002 s⁻¹.

B4: LtaE (low-specificity threonine aldolase) (Escherichia coli K-12) (protein)
chain: MIDLRSDTVTRPSRAMLEAMMAAPVGDDVYGDDPTVNALQDYAAELSGKEAAIFLPTGTQANLVALLSHCERGEEYIVGQAAHNYLFEAGGAAVLGSIQPQPIDAAADGTLPLDKVAMKIKPDDIHFARTKLLSLENTHNGKVLPREYLKEAWEFTRERNLALHVDGARIFNAVVAYGCELKEITQYCDSFTICLSKGLGTPVGSLLVGNRDYIKRAIRWRKMTGGGMRQSGILAAAGIYALKNNVARLQEDHDNAAWMAEQLREAGADVMRQDTNMLFVRVGEENAAALGEYMKARNVLINASPIVRLVTHLDVSREQLAEVAAHWRAFLAR
As for B4, in data set [5], the Km came out at 4000 ± 200 µM, the kcat is 1.1 ± 0.1 s⁻¹ and the kcat/Km turned out to be 280 ± 20 M⁻¹ s⁻¹. Besides, in data set [6], the Km was found to be 52 ± 4 µM, the kcat came to 3.2 ± 0.2 s⁻¹ and the kcat/Km turned out to be 62000 ± 5000 M⁻¹ s⁻¹. In addition, in data set [2] (setting [7]), the Km came to 27 ± 2 µM, the turnover number (kcat) worked out at 1.44 ± 0.03 s⁻¹ and the kcat/Km was found to be 53000 ± 4000 M⁻¹ s⁻¹.
